From US20220332795A1 (ARO BIOTHERAPEUTICS, published 2022)

Key:
[1] = molecular target: T1, recombinant biotinylated CD71 extracellular domain (Sino Biologics) with an N-terminal 6His tag (human, UniProt P02786 89-760, biotinylated (site not stated)); assay: primary solution ELISA screen, signal on hCD71 over HSA
T1 construct: extracellular domain; also called hCD71; huCD71 ECD

[2] = molecular target: T1, recombinant biotinylated CD71 …; assay: primary solution ELISA screen

T1 sequence (P02786 other isoform, or with tags, fused parts or gaps): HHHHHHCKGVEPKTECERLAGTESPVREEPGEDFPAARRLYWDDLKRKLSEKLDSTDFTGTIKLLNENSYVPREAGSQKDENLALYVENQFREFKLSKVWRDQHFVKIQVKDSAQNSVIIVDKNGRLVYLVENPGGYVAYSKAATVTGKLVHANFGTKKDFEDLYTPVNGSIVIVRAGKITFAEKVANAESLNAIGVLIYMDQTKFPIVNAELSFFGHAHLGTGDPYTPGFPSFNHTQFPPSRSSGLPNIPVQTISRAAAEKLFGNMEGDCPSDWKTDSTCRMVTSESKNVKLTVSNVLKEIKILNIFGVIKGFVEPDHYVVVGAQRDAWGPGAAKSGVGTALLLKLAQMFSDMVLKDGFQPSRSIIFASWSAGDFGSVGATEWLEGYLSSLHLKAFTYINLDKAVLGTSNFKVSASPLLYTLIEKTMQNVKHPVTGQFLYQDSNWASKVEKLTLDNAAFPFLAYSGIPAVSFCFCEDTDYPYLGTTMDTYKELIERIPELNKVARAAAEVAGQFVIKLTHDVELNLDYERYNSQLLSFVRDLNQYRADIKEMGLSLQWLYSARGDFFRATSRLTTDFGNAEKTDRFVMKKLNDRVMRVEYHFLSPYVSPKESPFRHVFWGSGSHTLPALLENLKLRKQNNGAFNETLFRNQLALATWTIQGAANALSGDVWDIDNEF

Binder | hCD71:HSA [1] | RLU [2] [RLU]
SEQ ID NO 50 (designed binder, not shown: small tags and cut ends, FN3 domain, hit of the apical domain panning) MSLPAPKNLVVSRVTEDSARLSWTAPDAAFDSFTIHYREFQLSGEAIVLTVPGSERSYDLTGLKPGTEYDVPIEGVKGGPGSRPLSAIFTT | 20 | 321000
SEQ ID NO 19 (designed binder, not shown: small tags and cut ends, FN3 domain, hit of the apical domain panning) MLPAPKNLVVSRVTEDSARLSWTAPDAAFDSFAITYTEAALCGEAIVLTVPGSERSYDLTGLKPGTEYPVPINGVKGGGTSGPLSAIFTT | 53 | 956000
SEQ ID NO 13 (designed binder, not shown: small tags and cut ends, FN3 domain, hit of the apical domain panning) MLPAPKNLVVSRVTEDSARLSWTAPDAAFDSFLIAYPEDGFRGEAIVLTVPGSERSYDLTGLKPGTEYPVPILGVKGGGGSGPLSAIFTT | 70 | 1.73e+06
SEQ ID NO 72 (designed binder, not shown: small tags and cut ends, FN3 domain, hit of the apical domain panning) MLPAPKNLVVSRVTEDSARLSWTAPDAAFDSFTIGYREWYWYGEAIVLTVPGSERSYDLTGLKPGTEYNVPISGVKGGLDSFPLSAIFTT | 38 | 338000
SEQ ID NO 56 (designed binder, not shown: small tags and cut ends, FN3 domain, hit of the apical domain panning) MLPAPKNLVVSRVTEDSARLSWTAPDAAFDSFSIGYVELVLLGEAIVLTVPGSERSYDLTGLKPGTEYDVLIPGVKGGSLSRPLSAIFTT | 99 | 1.92e+06
SEQ ID NO 33 (designed binder, not shown: small tags and cut ends, FN3 domain, hit of the apical domain panning) MLPAPKNLVVSRVTEDSARLSWTAPDAAFDSFGIAYVESYWYGEAIVLTVPGSERSYDLTGLKPGTEYNVPIYGVKGGDGSGPLSAIFTT | 132 | 271000
SEQ ID NO 30 (designed binder, not shown: small tags and cut ends, FN3 domain, hit of the apical domain panning) MLPAPKNLVVSRVTEDSARLSWTAPDAAFDSFIIHYVEQQLIGEAIVLTVPGSERSYDLTGLKPGTEYPVPITGVKGGACSWPLSAIFTT | 46 | 205000
SEQ ID NO 34 (designed binder, not shown: small tags and cut ends, FN3 domain, hit of the apical domain panning) MLPAPKNLVVSRVTEDSARLSWTAPDAAFDSFYITYVELNLAGEAIVLTVPGSERSYDLTGLKPGTEYPVPILGVKGGSLSQPLSAIFTT | 195 | 1.58e+06
SEQ ID NO 88 (designed binder, not shown: small tags and cut ends, FN3 domain, hit of the apical domain panning) MLPAPKNLVVSRVTEDSARLSWTAPDAAFDSFPIKYREVLRCGEAIVLTVPGSERSYDLTGLKPGTEYTVPITGVKGGFGSSPLSAIFTT | 21 | 515000
SEQ ID NO 18 (designed binder, not shown: small tags and cut ends, FN3 domain, hit of the apical domain panning) MLPAPKNLVVSRVTEDSARLSWTAPDAAFDSFNIMYHEIIYVGEAIVLTVPGSERSYDLTGLKPGTEYPVPIEGVKGGGTSGPLSAIFTT | 79 | 828000
SEQ ID NO 43 (designed binder, not shown: small tags and cut ends, FN3 domain, hit of the apical domain panning) MLPAPKNLVVSRVTEDSARLSWTAPDAAFDSFMIVYYEYTRFGEAIVLTVPGSERSYDLTGLKPGTEYTVPIDGVKGGGRSSPLSAIFTT | 36 | 772000
SEQ ID NO 17 (designed binder, not shown: small tags and cut ends, FN3 domain, hit of the apical domain panning) MLPAPKNLVVSRVTEDSARLSWTAPDAAFDSFPILYTECVYRGEAIVLTVPGSERSYDLTGLKPGTEYHVPITGVKGGGGSWPLSAIFTT | 61 | 221000
SEQ ID NO 58 (designed binder, not shown: small tags and cut ends, FN3 domain, hit of the apical domain panning) MLPAPKNLVVSRVTEDSARLSWTAPDAAFDSFHIEYLELSRHGEAIVLTVPGSERSYDLTGLKPGTEYWVMIFGVKGGGPSKPLSAIFTT | 101 | 1.04e+06
SEQ ID NO 48 (designed binder, not shown: small tags and cut ends, FN3 domain, hit of the apical domain panning) MLPAPKNLVVSRVTEDSARLSWTAPDAAFDSFLIYYEEGYLEYYYSGEAIVLTVPGSERSYDLTGLKPGTEYYVGIVGVKGGGLSGPLSAISTT | 26 | 3.04e+06
SEQ ID NO 6 (designed binder, not shown: small tags and cut ends, FN3 domain, hit of the apical domain panning) MLPAPKNLVVSRVTEDSARLSWTAPDAAFDSFPIIYMETFSRGEAIVLTVPGSERSYDLTGLKPGTEYRVPIGGVKGGSSSCPLSAIFTT | 43 | 315000
SEQ ID NO 62 (designed binder, not shown: small tags and cut ends, FN3 domain, hit of the apical domain panning) MLPAPKNLVVSRVTEDSARLSWTAPDAAFDSFKIRYTETRSIGEAIVLTVPGSERSYDLTGLKPGTEYCVPIGGVKGGDSSWPLSAISTT | 28 | 229000
SEQ ID NO 59 (designed binder, not shown: small tags and cut ends, FN3 domain, hit of the apical domain panning) MLPAPKNLVVSRVTEDSARLSWTAPDAAFDSFVYNEVHWIGEAIVLTVPGSERSYDLTGLKPGTEYFVGIYGVKGGHWSKPLSAIFTT | 68 | 1.11e+06
SEQ ID NO 40 (designed binder, not shown: small tags and cut ends, FN3 domain, hit of the apical domain panning) MLPAPKNLVVSRVTEDSARLSWTAPDAAFDSFTIDYWENRCPGEAIVLTVPGSERSYDLTGLKPGTEYCVWISGVKGGYSSWPLSAIFTT | 16 | 223000

Binder | hCD71:HSA [1] | RLU [2] [RLU]
SEQ ID NO 76 (designed binder, not shown: small tags and cut ends, FN3 domain, hit of the apical domain panning) MLPAPKNLVVSRVTEDSARLSWTAPDAAFDSFTIEYYENIGIGEAIVLTVPGSERSYDLTGLKPGTEYSVPIVGVKGGPYSHPLSAIFTT | 41 | 674000
SEQ ID NO 54 (designed binder, not shown: small tags and cut ends, FN3 domain, hit of the apical domain panning) MLPAPKNLVVSRVTEDSARLSWTAPDAAFDSFAIAYGEHIVIGEAIVLTVPGSERSYDLTGLKPGTEYMVPIAGVKGGPISLPLSAIFTT | 49 | 579000
SEQ ID NO 85 (designed binder, not shown: small tags and cut ends, FN3 domain, hit of the apical domain panning) MLPAPKNLVVSRVTEDSARLSWTAPDAAFDSFIIEYFEPIPIGEAIVLTVPGSERSYDLTGLKPGTEYAVNIYGVKGGYLSHPLSAIFTT | 33 | 210000
SEQ ID NO 29 (designed binder, not shown: small tags and cut ends, FN3 domain, hit of the apical domain panning) MLPAPKNLVVSRVTEDSARLSWTAPDAAFDSFWIEYWEAVGFGEAIVLTVPGSERSYDLTGLKPGTEYFVGIYGVKGGYLSAPLSAIFTT | 580 | 2.17e+06
SEQ ID NO 47 (designed binder, not shown: small tags and cut ends, FN3 domain, hit of the apical domain panning) MLPAPKNLVVSRVTEDSARLSWTAPDAAFDSFGIVYLEMMVTGEAIVLTVPGSERSYDLTGLKPGTEYDVPILGVKGGTRSVPLSAIFTT | 98 | 1.99e+06
SEQ ID NO 12 (designed binder, not shown: small tags and cut ends, FN3 domain, hit of the apical domain panning) MLPAPKNLVVSRVTEDSARLSWTAPDAAFDSFFIPYAEPSPTGEAIVLTVPGSERSYDLTGLKPGTEYSVLIHGVKGGHLSDPLSAISTT | 25 | 1.24e+06
SEQ ID NO 77 (designed binder, not shown: small tags and cut ends, FN3 domain, hit of the apical domain panning) MLPAPKNLVVSRVTEDSARLSWTAPDAAFDSFPIAYAEPRPDGEAIVLTVPGSERSYDLTGLKPGTEYSVLIHGVKGGLLSSPLSAIFTT | 71 | 739000
SEQ ID NO 82 (designed binder, not shown: small tags and cut ends, FN3 domain, hit of the apical domain panning) MLPAPKNLVVSRVTEDSARLSWTAPDAAFDSFLIPYAETSPSGEAIVLTVPGSERSYDLTGLKPGTEYSVLIHGVKGGDYSSPLSAIFTT | 105 | 1.56e+06
SEQ ID NO 64 (designed binder, not shown: small tags and cut ends, FN3 domain, hit of the apical domain panning) MLPAPKNLVVSRVTEDSARLSWTAPDAAFDSFYIVYAEPIPNGEAIVLTVPGSERSYDLTGLKPGTEYSVLIHGVKGGRNSDPLSAIFTT | 218 | 1.31e+06
SEQ ID NO 57 (designed binder, not shown: small tags and cut ends, FN3 domain, hit of the apical domain panning) MLPAPKNLVVSRVTEDSARLSWTAPDAAFDSFAIPYAELSRNGEAIVLTVPGSERSYDLTGLKPGTEYTVLIHGVKGGCLSDPLSAIFTT | 29 | 1.12e+06
SEQ ID NO 42 (designed binder, not shown: small tags and cut ends, FN3 domain, hit of the apical domain panning) MLPAPKNLVVSRVTEDSARLSWTAPDAAFDSFLIPYAETSPSGEAIVLTVPGSERSYDLTGLKPGTEYSVLIHGVKGGDYSEPLSAIFTT | 586 | 586000
SEQ ID NO 99 (designed binder, not shown: small tags and cut ends, FN3 domain, hit of the apical domain panning) MLPAPKNLVVSRVTEDSARLSWTAPDAAFDSFFIPYAEPSPTGEAIVLTVPGSERSYDLTGLKPGTEYSVLIHGVKGGHLSDPLSVIFTT | 45 | 440000
SEQ ID NO 46 (designed binder, not shown: small tags and cut ends, FN3 domain, hit of the apical domain panning) MLPAPKNLVVSRVTEDSARLSWTAPDAAFDSFIIPYAEVRPDGEAIVLTVPGSERSYDLTGLKPGTEYSVLIHGVKGGKLSLPLSAIFTT | 127 | 1.04e+06
SEQ ID NO 49 (designed binder, not shown: small tags and cut ends, FN3 domain, hit of the apical domain panning) MLPAPKNLVVSRVTEDSARLSWTAPDAAFDSFPIAYAEPRPDGEAIVLTVPGSERSYDLTGLKPGTEYSVLIHGVKGGDWSLPLSAIFTT | 70 | 969000
SEQ ID NO 68 (designed binder, not shown: small tags and cut ends, FN3 domain, hit of the apical domain panning) MLPAPKNLVVSRVTEDSARLSWTAPDAAFDSFIIPYAEVRPDGEAIVLTVPGSERSYDLTGLKPGTEYSVLIHGVKGGHLSDPLSAISTT | 14 | 521000
SEQ ID NO 83 (designed binder, not shown: small tags and cut ends, FN3 domain, hit of the apical domain panning) MLPAPKNLVVSRVTEDSARLSWTAPDAAFDSFPIAYAEPRPDGEAIVLTVPGSERSYDLTGLKPGTEYSVLIHGVKGGLLSSPLSAISTT | 29 | 3.26e+06
SEQ ID NO 65 (designed binder, not shown: small tags and cut ends, FN3 domain, hit of the apical domain panning) MLPAPKNLVVSRVTKDSARLSWTAPDAAFDSFPIAYAEPRPDGEAIVLTVPGSERSYDLTGLKPGTEYSVLIHGVKGGLLSSPLSAIFTT | 60 | 959000
SEQ ID NO 44 (designed binder, not shown: small tags and cut ends, FN3 domain, hit of the apical domain panning) MLPAPKNLVVSRVTEDSARLSWTAPDAAFDSFFIPYAEPSPTGEAIVLTVPGSERSYDLTGLKPGTEYSVLIHGVKGGHLSDPLSAIVTT | 13 | 715000
